Experiments:
Conditions in all cases: protein: recombinant; tags: N-terminal His6 (pET28a)
[1] = target: T1, Nab3 RRM S399A (Saccharomyces cerevisiae, UniProt P38996 329-419, S399A); assay: pull-down (streptavidin, anti-His blot); 25 uM RNA; 10 mM Tris-HCl pH 7.8, 50 mM NaCl, 1 mM EDTA, 5% glycerol, 2.5 mM DTT; 30 min at 15 C, then beads 2 h at 4 C; washes with 0.1% Tween-20
T1 sequence: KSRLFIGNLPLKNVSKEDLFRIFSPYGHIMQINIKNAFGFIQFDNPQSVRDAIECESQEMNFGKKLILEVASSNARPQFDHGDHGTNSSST

[2] = target: T2, Nab3 RRM K363A (Saccharomyces cerevisiae, UniProt P38996 329-419, K363A); assay: as above
T2 sequence: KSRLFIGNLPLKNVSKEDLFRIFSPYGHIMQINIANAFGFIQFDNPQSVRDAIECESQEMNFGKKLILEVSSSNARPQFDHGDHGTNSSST

[3] = target: T3, Nab3 RRM (Saccharomyces cerevisiae, UniProt P38996 329-419); assay: pull-down (streptavidin, anti-His blot densitometry); 25 uM RNA; protein 0-60 uM; apparent Kd; 10 mM Tris-HCl pH 7.8, 50 mM NaCl, 1 mM EDTA, 5% glycerol, 2.5 mM DTT; 30 min at 15 C, then beads 2 h at 4 C; washes with 0.1% Tween-20
T3 sequence: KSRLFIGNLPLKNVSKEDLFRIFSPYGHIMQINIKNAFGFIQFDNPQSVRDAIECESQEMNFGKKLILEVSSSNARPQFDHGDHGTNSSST

[4] = target: T4, Nab3 RRM K363R (Saccharomyces cerevisiae, UniProt P38996 329-419, K363R); assay: as above
T4 sequence: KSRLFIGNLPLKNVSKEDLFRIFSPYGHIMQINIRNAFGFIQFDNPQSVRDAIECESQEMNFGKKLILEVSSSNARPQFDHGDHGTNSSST

UUUCUUUUUUCUUAUUCUUAUU (ssRNA) [snR47 RNA probe]
binding result [1]: no binding | binding result [2]: no binding | Kd [3]: 13.7 µM | Kd [4]: 41.9 µM

— article PMC7102954, “A crucial RNA-binding lysine residue in the Nab3 RRM domain undergoes SET1 and SET3-responsive methylation”
